From IntAct's records for PubMed 11163258

B1: Platelet-activating factor acetylhydrolase IB subunit beta (Homo sapiens), P43034 (parent)
chain: MVLSQRQRDELNRAIADYLRSNGYEEAYSVFKKEAELDVNEELDKKYAGLLEKKWTSVIRLQKKVMELESKLNEAKEEFTSGGPLGQKRDPKEWIPRPPEKYALSGHRSPVTRVIFHPVFSVMVSASEDATIKVWDYETGDFERTLKGHTDSVQDISFDHSGKLLASCSADMTIKLWDFQGFECIRTMHGHDHNVSSVAIMPNGDHIVSASRDKTIKMWEVQTGYCVKTFTGHREWVRMVRPNQDGTLIASCSNDQTVRVWVVATKECKAELREHEHVVECISWAPESSYSSISEATGSETKKSGKPGPFLLSGSRDKTIKMWDVSTGMCLMTLVGHDNWVRGVLFHSGGKFILSCADDKTLRVWDYKNKRCMKTLNAHEHFVTSLDFHKTAPYVVTGSVDQTVKVWECR
partner: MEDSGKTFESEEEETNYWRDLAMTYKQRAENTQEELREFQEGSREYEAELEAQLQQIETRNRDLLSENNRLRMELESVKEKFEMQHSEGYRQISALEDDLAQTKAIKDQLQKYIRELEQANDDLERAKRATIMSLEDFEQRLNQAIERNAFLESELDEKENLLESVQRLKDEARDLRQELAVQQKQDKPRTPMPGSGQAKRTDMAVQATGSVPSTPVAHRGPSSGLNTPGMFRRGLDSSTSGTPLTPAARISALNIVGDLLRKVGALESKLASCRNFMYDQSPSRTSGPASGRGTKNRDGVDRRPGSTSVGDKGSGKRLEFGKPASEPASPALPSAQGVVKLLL

Variants of: B1
Settings: with nde1_mouse Nde1, Q9CZA6
MVLSQRQRDELNRAIADYLRSNGYEEAYSVFKKEAELDVNEELDKKYAGLLEKKWTSVIRLQKKVMELESKLNEAKEEFTSGGPLGQKRDPKEWIPRPPEKYALSGHRSPVTRVIFHPVFSVMVSASEDATIKVWDYETGDFERTLKGHTDSVQDISFDHSGKLLASCPADMTIKLWDFQGFECIRTMHGHDHNVSSVAIMPNGDHIVSASRDKTIKMWEVQTGYCVKTFTGHREWVRMVRPNQDGTLIASCSNDQTVRVWVVATKECKAELREHEHVVECISWAPESSYSSISEATGSETKKSGKPGPFLLSGSRDKTIKMWDVSTGMCLMTLVGHDNWVRGVLFHSGGKFILSCADDKTLRVWDYKNKRCMKTLNAHEHFVTSLDFHKTAPYVVTGSVDQTVKVWECR [S169P] was tested, and the “effect of a mutation on the interaction” value was “decreasing interaction”.
For MVLSQRQRDELNRAIADYLRSNGYEEAYSVFKKEAELDVNEELDKKYAGLLEKKWTSVIRLQKKVMELESKLNEAKEEFTSGGPLGQKRDPKEWIPRPPEKYALSGHRSPVTRVIFHPVFSVMVSASEDATIKVWDYETGDFERTLKGRTDSVQDISFDHSGKLLASCSADMTIKLWDFQGFECIRTMHGHDHNVSSVAIMPNGDHIVSASRDKTIKMWEVQTGYCVKTFTGHREWVRMVRPNQDGTLIASCSNDQTVRVWVVATKECKAELREHEHVVECISWAPESSYSSISEATGSETKKSGKPGPFLLSGSRDKTIKMWDVSTGMCLMTLVGHDNWVRGVLFHSGGKFILSCADDKTLRVWDYKNKRCMKTLNAHEHFVTSLDFHKTAPYVVTGSVDQTVKVWECR [H149R], the “effect of a mutation on the interaction” value was “decreasing interaction”.
